The target of one assay is T1, Human Trop-2 (Homo sapiens, UniProt P09758).
T1 sequence (P09758 27-323): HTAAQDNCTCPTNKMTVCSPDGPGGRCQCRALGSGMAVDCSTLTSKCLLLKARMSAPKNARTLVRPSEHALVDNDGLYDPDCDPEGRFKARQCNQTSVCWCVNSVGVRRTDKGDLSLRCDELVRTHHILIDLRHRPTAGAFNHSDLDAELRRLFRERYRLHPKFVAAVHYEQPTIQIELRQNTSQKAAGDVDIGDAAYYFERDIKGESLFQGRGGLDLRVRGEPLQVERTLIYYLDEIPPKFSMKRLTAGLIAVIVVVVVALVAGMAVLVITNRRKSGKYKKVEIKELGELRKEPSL
Put plainly: Binding to human Trop-2 measured by surface plasmon resonance (SPR). An excerpt: (§1) To engineer an anti-mouse Trop-2 ADC binding to mouse Trop-2 with proprieties similar to SG, we selected a commercially available anti-mouse Trop-2 rabbit antibody (Sino Biological, #50922-R064) and murinized it to obtain an anti-mouse Trop-2 IgG2a (Rab64/mG2a/mKap). Rab64 mAb was then coupled to CL2A linker/SN-38 payload at a high DAR (˜8-9).
A general note: In SPR one partner is held on a chip, and binding of the other changes the refractive index at the surface.

The next assay addresses T2, Mouse Trop-2 (Mus musculus, UniProt Q8BGV3).
T2 sequence (Q8BGV3 25-317): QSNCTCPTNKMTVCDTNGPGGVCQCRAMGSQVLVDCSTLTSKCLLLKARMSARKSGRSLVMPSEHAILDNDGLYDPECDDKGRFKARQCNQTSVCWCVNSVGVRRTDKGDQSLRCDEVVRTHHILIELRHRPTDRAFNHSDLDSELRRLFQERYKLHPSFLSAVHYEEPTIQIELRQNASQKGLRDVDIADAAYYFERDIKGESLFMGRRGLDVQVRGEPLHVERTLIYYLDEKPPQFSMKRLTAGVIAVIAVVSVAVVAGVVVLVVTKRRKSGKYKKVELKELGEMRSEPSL
The assay can be described thus: Binding to mouse Trop-2 measured by surface plasmon resonance (SPR).
Description: as §1

A further assay addresses Human Trop-2 (human) (UniProt P09758). Put plainly: SPR.

From patent US20250249115A1, “COMBINATION THERAPY FOR TREATING TUMOR ANTIGEN EXPRESSING CANCERS” (Gilead Sciences, Inc., priority 2022, published 2025) come the findings set out here.

What is called Kd is the equilibrium constant for the complex coming apart. Read a low Kd as tighter binding. Turning to “hRS7-hIgG1k: humanized monoclonal antibody hRS7 IgG1κ, which binds to Trop-2”, binding with Human Trop-2 was put at a Kd of 0.328 nM. In addition, the KD result with Mouse Trop-2 is reported as “No binding detected”.

B1: hRS7-hIgG1k (antibody, INN chains, looked up, V domains shown)
VH: QVQLQQSGSELKKPGASVKVSCKASGYTFTNYGMNWVKQAPGQGLKWMGWINTYTGEPTYTDDFKGRFAFSLDTSVSTAYLQISSLKADDTAVYFCARGGFGSSYWYFDVWGQGSLVTVSS
VL: DIQLTQSPSSLSASVGDRVSITCKASQDVSIAVAWYQQKPGKAPKLLIYSASYRYTGVPDRFSGSGSGTDFTLTISSLQPEDFAVYYCQQHYITPLTFGAGTKVEIKR
For orientation: koff means a measure of how fast the partners let go of each other. High values mean a short-lived complex, low ones a long-lived complex. In general, kon refers to a measure of how fast the partners come together. Low readings indicate slow association, high ones fast association. Take B1: in the assay with Human Trop-2 (human), the Kd was determined as 0.328 nM, the koff is 0.000144 s⁻¹ and the kon is 440000 M⁻¹ s⁻¹.

B2: Sacituzumab Govitecan (SG, Trodelvy) (antibody, INN chains, looked up, IgG1, V domains shown)
VH: B1 VH
VL: B1 VL
modifications: CL2A-SN-38, DAR 7.5
Regarding B2, in the assay with Human Trop-2 (human), the Kd came out at 0.361 nM, the dissociation rate constant (koff) was 0.000153 s⁻¹ and the kon was found to be 423000 M⁻¹ s⁻¹.
